Experimental data taken from paper PMC3092513 (Enzyme Research, 2011).

What was measured:
purified protein [1] = substrate: O=C(O)C(=O)C[C@@H](O)[C@H](O)[C@H](O)COP(=O)(O)O; test: purified protein; assay type: biochemical, Escherichia coli; conditions: 25 °C, pH 6.8
purified protein [2] = substrate: O=C(O)C(=O)C[C@@H](O)[C@H](O)[C@H](O)COP(=O)(O)O; test: purified protein; assay type: biochemical, Pyrococcus furiosus; conditions: 60 °C, pH 6.8, 50 mM BTP, 10 μM EDTA, 100 μM ZnCl2, 29 μM NAD+, 56 nM enzyme
[3] = target: the molecule itself; test: SEC; Superdex S200 HR 10/300; 10 mM BTP, 10 μM EDTA, 50 mM KCl, pH 6.8; partially purified protein at ≤10 mg/mL; mass estimated from a standard curve of five proteins; dimer of the enzyme

Protein	Km (purified protein [1]) [µM]	kcat (purified protein [1]) [s⁻¹]	kcat/Km (purified protein [1]) [M⁻¹ s⁻¹]	Km (purified protein [2]) [µM]	kcat (purified protein [2]) [s⁻¹]	kcat/Km (purified protein [2]) [M⁻¹ s⁻¹]	stoichiometry N [3]
EcoDHQS (Escherichia coli K-12) (protein, recombinant, overexpressed in E. coli RB791 from plasmid of J. R. Coggins; ammonium sulfate and anion exchange; no tag mentioned) MERIVVTLGERSYPITIASGLFNEPASFLPLKSGEQVMLVTNETLAPLYLDKVRGVLEQAGVNVDSVILPDGEQYKSLAVLDTVFTALLQKPHGRDTTLVALGGGVVGDLTGFAAASYQRGVRFIQVPTTLLSQVDSSVGGKTAVNHPLGKNMIGAFYQPASVVVDLDCLKTLPPRELASGLAEVIKYGIILDGAFFNWLEENLDALLRLDGPAMAYCIRRCCELKAEVVAADERETGLRALLNLGHTFGHAIEAEMGYGNWLHGEAVAAGMVMAARTSERLGQFSSAETQRIITLLKRAGLPVNGPREMSAQAYLPHMLRDKKVLAGEMRLILPLAIGKSEVRSGVSHELVLNAIADCQSA	6.3 ± 0.2	16 ± 0.2	2.5e+06				
Pyrococcus furiosus dehydroquinate synthase (enzyme, UniProt Q8U0A8 1-335, looked up) MEGIIFGDLSTLPDLLSSLSPYKVVVLTNTTLKELWLEEVLTWLKEFKPQTIVVPDGEKYKDLDTVRYIWEKLLEMGFTRRSLLIGLGGGVITDIAGFVASTYMRGTYLGLVPTTLLAQVDAAIGGKTGINFYGKNIIGTFYLPKFVLICRDFLKTLPMVEILNGLAEVVKYGILDKEVYNAIKTMNSPREIVEREDIIKKSVAVKLRIVEEDLKENGKRRVLNLGHTVGHAIEKISDYKIKHGFAVSMGLVVEAKIGEILYGFDSGKVVEILTKFGLPVKIPFDPYTTLQAMKIDKKAWYGKIVIVVPVEIGKANIEEVDEKIILQALEEAKNA				3.7 ± 0.2	3 ± 0.1	800000	2
